Assay results published in the supplement of paper PMC10567573.

B1: PLK2 (parent)
chain: YAELGQCSVFPATDAPEQFISQVT

Variants of: B1
Assay: protein stability index of a GFP-peptide fusion (GPS, HEK-293T) (PSI 1-6); higher = more stable
Settings: c terminus: a fixed tail appended
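Further: lentivirally expressed fusions sorted by FACS into six bins by GFP to DsRed ratio, PSI derived from sequencing read proportions per bin multiplied by bin number.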

Protein stability index of substitutions, site by site:
T24: M 1.73, F 1.62, L 2.21, G 2.31, D 2.64, E 2.33, I 2.48, A 1.59, K 2.6, C 1.31, H 2.57
A15: S 1.83, V 2.22, W 2.29, T 2.19, Y 2.13, R 2.21
S21: G 2.26, R 1.76, T 2.49, D 2.72, V 1.9, F 1.82, Y 1.57, Q 1.89, A 1.64, H 1.8, E 2.75, W 2.92, P 2.41, L 2.59, I 2.64, C 1.53, K 2.35, M 3.09, N 2.14
F19: R 3.85, P 2.4, S 2.01, C 1.96, N 2.92, G 2.38, Q 2.81, A 2.19, Y 1.94, E 3.01, W 1.9, L 2.36, T 2.7, M 2.43, H 3.16, D 2.87, I 2.28, K 2.97, V 2.28
Q18: V 2.49, P 2.01, F 2.15, S 2.29, L 2, M 2, T 2.13, R 1.88, C 1.84, D 2.98, W 2.21, E 2.87, I 2.02, Y 2.26, G 2.82, A 1.87, N 2.73, K 2.08, H 2.19
I20: W 1.27, R 2.53, S 3.25, D 2.75, V 2.84, H 2.96, Q 2.31, E 2.69, F 2.54, P 2.24, Y 1.7, M 2.35, G 2.69, T 2.27, A 2.13, N 2.65, K 2.15, L 2.11
Q22: H 2.27, D 2.75, Y 1.86, L 1.7, C 1.72, G 2.36, I 1.52, E 3.2, S 2.06, V 2.81, F 1.73, N 2.31, P 2.47, T 2.1, R 2.08, W 2.09, A 1.94, K 1.77, M 1.73
P16: N 2.35, T 2.05, Y 1.79, I 1.74, R 1.84, F 1.64, H 1.58, S 2.33, C 2.04, A 1.8, K 1.87, Q 2.44, G 1.89, W 2.84, V 1.66, L 1.84, E 2.66, D 2.53, M 1.91
V23: C 2.95, K 2.38, I 1.74, D 3.06, W 2.39, L 1.91, E 2.75, H 1.98, N 2.58, S 2.96, T 2.48, R 2.54, M 2.29, G 2.52, A 2.39, P 2.81, F 1.89, Y 1.98, Q 2.56
E17: C 1.79, A 1.92, P 2.12, T 2.6, H 1.86, G 2.15, W 3.35, S 2.06, M 1.6, I 1.75, Y 2.64, F 2.18, L 2.33, V 1.78, R 1.62, K 2.32, Q 2.9, N 1.95
